Reference: US20200199241A1 (Chugai, published 2020)
Where a chain is given by its changes, count along the chain named.

B1: IgG1-F1136 (antibody)
heavy: QVQLQESGPGLVKPSETLSLTCAVSGHSISHDHAWSWVRQPPGEGLEWIGFISYSGITNYNPSLQGRVTISRDNSKNTLYLQMNSLRAEDTAVYYCARSLARTTAMDYWGEGTLVTVSSASTKGPSVFPLAPSSKSTSGGTAALGCLVKDYFPEPVTVSWNSGALTSGVHTFPAVLQSSGLYSLSSVVTVPSSSLGTQTYICNVNHKPSNTKVDKKVEPKSCDKTHTCPPCPAPELRGGPKVFLFPPKPKDTLYISRTPEVTCVVVDVSHEDPEVKFNWYVDGVEVHNAKTKPREEQYNSTYRVVSVLTVLHQDWLNGKEYKCKVSNKALPAPIEKTISKAKGQPREPQVYTLPPSRDELTKNQVSLTCLVKGFYPSDIAVEWESNGQPENNYKTTPPVLDSDGSFFLYSKLTVDKSRWQQGNEFRCSVMHEALHYHVTQKSLSLSP
light: not shown
notes: EU numbering; copies: 2 + 2
B2: IgG1-F1165 (antibody)
heavy: B1 heavy with R237L, P240D, K241S, T252Y, T309Q, V310P, Q313A, E424V, R426S
light: not shown
notes: EU numbering; copies: 2 + 2
B3: IgG1-F1200 (antibody)
heavy: B1 heavy with R237L, K241S, T252V, S256T, E424V, R426S, Q440R, S442E
light: not shown
notes: EU numbering; copies: 2 + 2
B4: IgG1-F1137 (antibody)
heavy: B1 heavy with E424S
light: not shown
notes: EU numbering; copies: 2 + 2
B5: IgG1-F1145 (antibody)
heavy: B1 heavy with R237L, K241S, T252V, T309Q, Q313A, E424V, R426S, Q440R, S442E
light: not shown
notes: EU numbering; copies: 2 + 2
B6: IgG1-F1148 (antibody)
heavy: B1 heavy with T309Q, Q313A, E424V, R426S, V438Y, Q440R, S442E
light: not shown
notes: EU numbering; copies: 2 + 2
B7: IgG1-F1139 (antibody)
heavy: B1 heavy with E424V, R426N
light: not shown
notes: EU numbering; copies: 2 + 2
B8: IgG1-F1202 (antibody)
heavy: B1 heavy with R237L, K241S, T252V, S256T, T258E, E424V, R426S, Q440R, S442E
light: not shown
notes: EU numbering; copies: 2 + 2
B9: IgG1-F1196 (antibody)
heavy: B1 heavy with R237L, K241S, E424V, R426S, Q440R, S442E, L443E
light: not shown
notes: EU numbering; copies: 2 + 2
B10: IgG1-F1141 (antibody)
heavy: B1 heavy with R237L, K241S, E424S, Q440R, S442E
light: not shown
notes: EU numbering; copies: 2 + 2
B11: IgG1-F1190 (antibody)
heavy: B1 heavy with R237L, K241S, E424V, R426S, H435E, Q440R, S442E
light: not shown
notes: EU numbering; copies: 2 + 2
B12: IgG1-F1144 (antibody)
heavy: B1 heavy with T252V, T309Q, V310P, Q313A, E424V, R426S, Q440R, S442E
light: not shown
notes: EU numbering; copies: 2 + 2
B13: IgG1-F1152 (antibody)
heavy: B1 heavy with T309Q, Q313A, E424V, R426N, V438Y
light: not shown
notes: EU numbering; copies: 2 + 2
B14: IgG1-F1162 (antibody)
heavy: B1 heavy with R237L, P240D, K241S, T252Y, E424V, R426S
light: not shown
notes: EU numbering; copies: 2 + 2
B15: IgG1-F1153 (antibody)
heavy: B1 heavy with T252V, T309Q, Q313A, E424V, R426N
light: not shown
notes: EU numbering; copies: 2 + 2
B16: IgG1-F1154 (antibody)
heavy: B1 heavy with T252V, T309Q, V310P, Q313A, E424V, R426N
light: not shown
notes: EU numbering; copies: 2 + 2
B17: IgG1-F1199 (antibody)
heavy: B1 heavy with R237L, K241S, S256T, T258E, E424V, R426S, Q440R, S442E
light: not shown
notes: EU numbering; copies: 2 + 2
B18: IgG1-F1178 (antibody)
heavy: B1 heavy with R237L, K241S, Y254M, V261I, V310F, E424V, R426S, M430L, Y436N, V438Y
light: not shown
notes: EU numbering; copies: 2 + 2
B19: IgG1-F1138 (antibody)
heavy: B1 heavy with E424V, R426S, Q440R, S442E
light: not shown
notes: EU numbering; copies: 2 + 2
B20: IgG1-F1184 (antibody)
heavy: B1 heavy with R237L, K241S, Y254M, T309A, E424V, R426S, M430L, Y436S, V438Y
light: not shown
notes: EU numbering; copies: 2 + 2
B21: IgG1-F1143 (antibody)
heavy: B1 heavy with E424S, Q440R, S442E
light: not shown
notes: EU numbering; copies: 2 + 2
B22: IgG1-F1161 (antibody)
heavy: B1 heavy with R237L, K241S, Y254M, I334V, E424V, R426N, V438Y
light: not shown
notes: EU numbering; copies: 2 + 2
B23: IgG1-F1160 (antibody)
heavy: B1 heavy with R237L, K241S, Y254M, V310F, E424V, R426N, V438Y
light: not shown
notes: EU numbering; copies: 2 + 2
B24: IgG1-F1183 (antibody)
heavy: B1 heavy with R237L, K241S, Y254M, E382A, E424V, R426S, M430L, Y436S, V438Y
light: not shown
notes: EU numbering; copies: 2 + 2
B25: IgG1-F1194 (antibody)
heavy: B1 heavy with R237L, K241S, E424V, R426S, Q440R, K441D, S442E
light: not shown
notes: EU numbering; copies: 2 + 2
B26: IgG1-F1188 (antibody)
heavy: B1 heavy with R237L, K241S, Y254M, T309A, E382A, E424V, R426S, Y436H, V438Y
light: not shown
notes: EU numbering; copies: 2 + 2
B27: IgG1-F1201 (antibody)
heavy: B1 heavy with R237L, K241S, T252V, T258E, E424V, R426S, Q440R, S442E
light: not shown
notes: EU numbering; copies: 2 + 2
B28: IgG1-F1140 (antibody)
heavy: B1 heavy with R237L, K241S, Q440R, S442E
light: not shown
notes: EU numbering; copies: 2 + 2
B29: IgG1-F1151 (antibody)
heavy: B1 heavy with E424V, R426N, V438Y
light: not shown
notes: EU numbering; copies: 2 + 2
B30: IgG1-F1142 (antibody)
heavy: B1 heavy with Q440R, S442E
light: not shown
notes: EU numbering; copies: 2 + 2
B31: IgG1-F1198 (antibody)
heavy: B1 heavy with R237L, K241S, T258E, E424V, R426S, Q440R, S442E
light: not shown
notes: EU numbering; copies: 2 + 2
B32: IgG1-F1195 (antibody)
heavy: B1 heavy with R237L, K241S, E424V, R426S, Q440R, S442E, L443A
light: not shown
notes: EU numbering; copies: 2 + 2
B33: IgG1-F1147 (antibody)
heavy: B1 heavy with R237L, K241S, T309Q, Q313A, E424V, R426S, V438Y, Q440R, S442E
light: not shown
notes: EU numbering; copies: 2 + 2
B34: IgG1-F1191 (antibody)
heavy: B1 heavy with R237L, K241S, E424V, R426S, T439A, Q440R, S442E
light: not shown
notes: EU numbering; copies: 2 + 2
B35: IgG1-F1164 (antibody)
heavy: B1 heavy with R237L, P240D, K241S, T252Y, T309Q, Q313A, E424V, R426S
light: not shown
notes: EU numbering; copies: 2 + 2
B36: IgG1-F1157 (antibody)
heavy: B1 heavy with R237L, K241S, E424V, R426S, V438Y, Q440R, S442E
light: not shown
notes: EU numbering; copies: 2 + 2
B37: IgG1-F1203 (antibody)
heavy: B1 heavy with R237L, K241S, T258Q, E424V, R426S, Q440R, S442E
light: not shown
notes: EU numbering; copies: 2 + 2
B38: IgG1-F1163 (antibody)
heavy: B1 heavy with R237L, P240D, K241S, T252Y, T309Q, Q313A, E424V, R426S, V438Y
light: not shown
notes: EU numbering; copies: 2 + 2
B39: IgG1-F1185 (antibody)
heavy: B1 heavy with R237L, K241S, Y254M, T309A, E382A, E424V, R426S, M430L, Y436S, V438Y
light: not shown
notes: EU numbering; copies: 2 + 2
B40: IgG1-F1197 (antibody)
heavy: B1 heavy with R237L, K241S, S256T, E424V, R426S, Q440R, S442E
light: not shown
notes: EU numbering; copies: 2 + 2
B41: IgG1-F1158 (antibody)
heavy: B1 heavy with E424V, R426S, V438Y, Q440R, S442E
light: not shown
notes: EU numbering; copies: 2 + 2
B42: IgG1-F1146 (antibody)
heavy: B1 heavy with T252V, T309Q, Q313A, E424V, R426S, Q440R, S442E
light: not shown
notes: EU numbering; copies: 2 + 2

biological target: T1, soluble human FcRn complexed with β2-microglobulin (human, UniProt P61769 21-119, limits assumed); experiment: Biacore SPR, pH 7.0;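 further: test antibodies captured on a Protein L chip with human FcRn flowed over as analyte, KD obtained as the ratio of dissociation to association rate constants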
T1 construct: also called hFcRn
T1 sequence (chain, as listed by the source limits assumed, chain 1 of 2): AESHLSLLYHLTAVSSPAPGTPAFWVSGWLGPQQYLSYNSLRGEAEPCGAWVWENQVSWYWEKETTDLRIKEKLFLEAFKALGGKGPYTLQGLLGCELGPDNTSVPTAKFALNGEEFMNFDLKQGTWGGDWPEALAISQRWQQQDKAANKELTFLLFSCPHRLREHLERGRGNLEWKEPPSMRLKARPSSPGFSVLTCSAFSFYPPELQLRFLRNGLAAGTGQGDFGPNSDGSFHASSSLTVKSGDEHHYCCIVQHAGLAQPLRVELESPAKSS
T1 sequence (P61769 21-119 limits assumed, chain 2 of 2): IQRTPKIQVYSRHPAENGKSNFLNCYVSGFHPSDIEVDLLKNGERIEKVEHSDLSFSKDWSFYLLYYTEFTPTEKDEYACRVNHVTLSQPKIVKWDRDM

Compared with B1, B2 is 10-fold lower in Kd: 163 nM for the first, 16.3 nM for the second.

B3 and B4 are within 1.5-fold of each other in Kd: 126 nM for the first, 158 nM for the second.

B5 and B6 are within 1.5-fold of each other in Kd: 52.3 nM for the first, 76.3 nM for the second.

Going from B7 to B8, the Kd falls from 152 nM to 88.1 nM (1.7-fold).

B9 and B10 are within 1.5-fold of each other in Kd: 151 nM for the first, 177 nM for the second.

Going from B11 to B12, the Kd falls from 240 nM to 14.4 nM (17-fold).

Going from B13 to B14, the Kd rises from 73.8 nM to 343 nM (4.6-fold). The first binds more tightly here.

Compared with B15, B16 is 3.6-fold lower in Kd: 48.5 nM for the first, 13.4 nM for the second. The second binds more tightly here.

Compared with B17, B18 is 14-fold higher in Kd: 62.5 nM for the first, 872 nM for the second. The first binds more tightly here.

Compared with B19, B20 is 6.1-fold higher in Kd: 165 nM for the first, 1000 nM for the second.

Going from B21 to B22, the Kd rises from 198 nM to 1070 nM (5.4-fold).

First: B23
Second: B24
The Kd of the first is 4.4-fold lower: 288 nM for the first, 1280 nM for the second. The first binds more tightly here.

Going from B25 to B26, the Kd rises from 155 nM to 1720 nM (11-fold).

First: B27
Second: B28
The Kd of the first is 1.5-fold lower: 107 nM for the first, 162 nM for the second. The first binds more tightly here.

B29 and B30 are within 1.5-fold of each other in Kd: 251 nM for the first, 187 nM for the second.

Compared with B31, B32 is 2.2-fold higher in Kd: 78.3 nM for the first, 176 nM for the second. The first binds more tightly here.

Compared with B33, B34 is 2.9-fold higher in Kd: 71.9 nM for the first, 211 nM for the second.

Compared with B35, B36 is 3-fold higher in Kd: 69.6 nM for the first, 209 nM for the second. The first binds more tightly here.

B37 and B38 are within 1.5-fold of each other in Kd: 152 nM for the first, 154 nM for the second.

First: B39
Second: B40
The Kd of the first is 9.7-fold higher: 917 nM for the first, 94.6 nM for the second.

First: B41
Second: B42
The Kd of the first is 3.9-fold higher: 244 nM for the first, 62.4 nM for the second. The second binds more tightly here.
